Experimental data from patent US20230111418A1 (TESARO, published 2023).

B1: exemplary humanized monoclonal anti-PD-1 antibody (human IGHG4*01 heavy chain with Ser to Pro hinge mutation at S228, human IGKC*01 kappa light chain; CDRs SEQ … (antibody, human IgG4 S228P, kappa, V domains shown)
VH: EVQLLESGGGLVQPGGSLRLSCAASGFTFSSYDMSWVRQAPGKGLEWVSTISGGGSYTYYQDSVKGRFTISRDNSKNTLYLQMNSLRAEDTAVYYCASPYYAMDYWGQGTTVTVSS
VL: DIQLTQSPSFLSAYVGDRVTITCKASQDVGTAVAWYQQKPGKAPKLLIYWASTLHTGVPSRFSGSGSGTEFTLTISSLQPEDFATYYCQHYSSYPWTFGQGTKLEIKR
modifications: N-glycosylation at asparagine residue 293 (SEQ ID NO: 3)
B2: PD-1-binding agent (comprising SEQ ID NOs: 1 and 2) (antibody, V domains shown)
VH: B1 VH
VL: B1 VL
notes: It is probably the same humanized IgG4 (S228P)/kappa antibody as m2

Assays:
[1] = target: T1, Human PD-1 on the cell surface (human, UniProt Q15116 25-288); test: cell-based or functional assay
T1 sequence (Q15116 25-288): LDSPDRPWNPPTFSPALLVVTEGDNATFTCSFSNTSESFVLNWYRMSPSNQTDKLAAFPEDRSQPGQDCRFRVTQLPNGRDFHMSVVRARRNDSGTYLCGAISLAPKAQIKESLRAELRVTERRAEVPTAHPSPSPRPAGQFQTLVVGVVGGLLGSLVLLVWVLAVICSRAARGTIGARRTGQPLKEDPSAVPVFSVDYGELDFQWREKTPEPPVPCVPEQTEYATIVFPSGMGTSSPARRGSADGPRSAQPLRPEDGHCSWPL

[2] = target: T1, Human PD-1 on the cell surface; test: cell-based or functional assay; remark: listed apart in the source
[3] = target: T2, Cynomolgus monkey PD-1 (SPR analyte/ligand; cynomolgus monkey PD-1 Fc fusion) (cynomolgus monkey, UniProt B0LAJ3 25-170); test: SPR
T2 construct: also called Cyno PD-1
T2 sequence (B0LAJ3 entry or part of it limits assumed): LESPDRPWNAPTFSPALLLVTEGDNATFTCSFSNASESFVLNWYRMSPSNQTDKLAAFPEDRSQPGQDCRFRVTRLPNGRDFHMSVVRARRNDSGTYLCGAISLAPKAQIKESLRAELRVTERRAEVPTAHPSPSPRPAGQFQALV

[4] = target: T3, Human PD-1 (SPR analyte/ligand; human PD-1 Fc fusion) (human, UniProt Q15116 25-167, limits assumed); test: SPR
T3 construct: not shown: Fc part of the fusion
T3 sequence (Q15116 25-167 limits assumed): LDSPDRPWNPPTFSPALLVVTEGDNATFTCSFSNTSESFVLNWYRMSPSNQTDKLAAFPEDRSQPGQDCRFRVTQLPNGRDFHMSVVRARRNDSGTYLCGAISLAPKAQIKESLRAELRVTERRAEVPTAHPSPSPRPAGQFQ

[5] = target: T1, Human PD-1 on the cell surface; test: flow cytometry on CHO-K1 cells expressing human PD-1
[6] = target: T4, Cynomolgus monkey PD-1 expressed on CHO-K1 cells (cynomolgus monkey, UniProt B0LAJ3 25-288); test: flow cytometry on CHO-K1 cells expressing cynomolgus monkey PD-1
T4 construct: also called Cyno PD-1; cell surface cynomolgus PD-1
T4 sequence (B0LAJ3 entry or part of it limits assumed): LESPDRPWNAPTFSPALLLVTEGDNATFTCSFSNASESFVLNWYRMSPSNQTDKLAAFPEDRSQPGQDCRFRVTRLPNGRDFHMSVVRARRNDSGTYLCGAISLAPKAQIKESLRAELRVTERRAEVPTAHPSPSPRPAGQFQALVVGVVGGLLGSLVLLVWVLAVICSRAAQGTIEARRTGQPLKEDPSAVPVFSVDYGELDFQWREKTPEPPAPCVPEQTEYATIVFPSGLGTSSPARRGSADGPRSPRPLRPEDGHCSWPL

| Binder | IL-2 stimulation ratio in fRO assay, 1 mg/kg, Baseline (n=6) [1] [ratio] | IL-2 stimulation ratio in fRO assay, 1 mg/kg, Day 3 (n=6) [1] [ratio] | IL-2 stimulation ratio in fRO assay, 1 mg/kg, Day 15 (n=6) [1] [ratio] | IL-2 stimulation ratio in fRO assay, 1 mg/kg, Day 22 (n=2) [1] [ratio] | IL-2 stimulation ratio in fRO assay, 1 mg/kg, Day 29 (n=2) [1] [ratio] | IL-2 stimulation ratio in fRO assay, 3 mg/kg, Baseline (n=3) [1] [ratio] | IL-2 stimulation ratio in fRO assay, 3 mg/kg, Day 3 (n=3) [1] [ratio] | IL-2 stimulation ratio in fRO assay, 3 mg/kg, Day 15 (n=3) [1] [ratio] | IL-2 stimulation ratio in fRO assay, 10 mg/kg, Baseline (n=4) [1] [ratio] | IL-2 stimulation ratio in fRO assay, 10 mg/kg, Day 3 (n=3) [1] [ratio] | IL-2 stimulation ratio in fRO assay, 10 mg/kg, Day 15 (n=1) [1] [ratio] | mean IL-2 stimulation ratio in fRO assay, Day 3, across all dose levels [2] [ratio] | Kd [3] [nM] | koff [3] [s⁻¹] | kon [3] [M⁻¹ s⁻¹] | Kd [4] [nM] | koff [4] [s⁻¹] | kon [4] [M⁻¹ s⁻¹] | EC50 [5] [nM] | EC50 [6] [nM] |
| --- | --- | --- | --- | --- | --- | --- | --- | --- | --- | --- | --- | --- | --- | --- | --- | --- | --- | --- | --- | --- |
| B1 | 1.69 | 1.01 | 1 | 1.32 | 1.08 | 1.62 | 0.927 | 0.977 | 1.86 | 1.05 | 0.86 | 1 |  |  |  |  |  |  |  |  |
| B2 |  |  |  |  |  |  |  |  |  |  |  |  | 0.53 | 0.00023 | 430000 | 0.3 | 0.00017 | 570000 | 2 | 3.4 |
